Laboratory results as given in US20100183625A1, “Treatment of Mucositis with Kallikrein Inhibitors” (Dyax Corp., priority 2009, published 2010).

Molecular target: T1, pKal (Homo sapiens, UniProt P03952)
T1 construct: two disulfide linked polypeptides; a heavy chain of approximately 52 kDa and a catalytic domain of approximately 34 kDa; host or cells: human plasma
Experiment: Fab fragments (small scale) tested for inhibition against human pKal in an in vitro protease cleavage assay
Format: biochemical
Conditions: Table 9
Experimental: By DNA sequencing, we recovered 61 of the possible 80 antibodies (Table 9). These antibodies were produced as Fab fragments in small scale (˜20 μg) and tested for inhibition against human pKal in an in vitro protease cleavage assay using Pro-Phe-Arg-aminomethylcoumarin as the synthetic peptide substrate. […] Five antibodies were then expressed in 293T cells and purified by protein A sepharose chromatography. The antibodies were analyzed by SDS-PAGE to determine which of the inhibitory mutants are not cleaved by the host cell protease(s) (data not shown).

T1 sequence (P03952 391-638 limits assumed): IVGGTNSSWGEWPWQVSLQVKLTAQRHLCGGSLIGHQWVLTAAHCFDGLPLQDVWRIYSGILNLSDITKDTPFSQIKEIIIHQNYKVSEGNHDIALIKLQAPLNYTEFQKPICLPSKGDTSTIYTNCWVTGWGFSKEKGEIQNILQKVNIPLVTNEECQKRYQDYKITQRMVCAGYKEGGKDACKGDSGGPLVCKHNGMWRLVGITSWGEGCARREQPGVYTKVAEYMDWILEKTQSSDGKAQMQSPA
T1 sequence (P03952 20-390 partner limits assumed): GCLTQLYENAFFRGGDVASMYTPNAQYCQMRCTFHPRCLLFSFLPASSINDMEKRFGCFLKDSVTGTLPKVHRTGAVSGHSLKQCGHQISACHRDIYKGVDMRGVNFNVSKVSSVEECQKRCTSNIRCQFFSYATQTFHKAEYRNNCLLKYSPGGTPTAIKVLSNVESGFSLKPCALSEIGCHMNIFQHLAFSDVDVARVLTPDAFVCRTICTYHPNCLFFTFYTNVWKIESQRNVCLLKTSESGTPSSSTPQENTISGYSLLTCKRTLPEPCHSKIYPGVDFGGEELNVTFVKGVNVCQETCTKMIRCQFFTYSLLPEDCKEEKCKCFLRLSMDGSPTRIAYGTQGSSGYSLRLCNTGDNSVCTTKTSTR

Row | Inhibit as a Fab? | Molecule
1 | Yes | X69-F01: single point mutation of M142-H08 (P1′); HV-CDR3 GGLLLWFRTLKSNYFDY (antibody, V domains shown) VL: QDIQMTQSPSSLSAFVGDRVTITCRASQPIDNYLNWYHQKPGKAPKLLIYAASRLQSGVPSRLSGSGFGTDFTLTISSLQPEDFGNYYCQQSYTVPYTFGGGTKVEIR VH: EVQLLESGGGLVQPGGSLRLSCAASGFTFSAYSMIWVRQAPSKGLEWVSYIRPSGGRTTYADSVKGRFTISRDNSKNTLYLQMNSLRAEDTAVYYCARGGLLLWFRTLKSNYFDYWGQGTLVTVSSASTKGPSVFPLAPSSKS
2 | No | X68-E12: single point mutation of M142-H08 (P3); HV-CDR3 GGLLLCFRELKSNYFDY (antibody, V domains shown) VL: QDIQMTQSPSSLSAFVGDRVTITCRASQPIDNYLNWYHQKPGKAPKLLIYAASRLQSGVPSRLSGSGFGTDFTLTISSLQPEDFGNYYCQQSYTVPYTFGGGTKVEIR VH: EVQLLESGGGLVQPGGSLRLSCAASGFTFSAYSMIWVRQAPGKGLEWVSYIRPSGGRTTYADSVKGRFTISRDNSKNTLYLQMNSLRAEDTAVYYCARGGLLLCFRELKSNYFDYWGQGTLVTVSSASTKGPSVFPLAPSSKS
3 | Yes | X69-E01: single point mutation of M142-H08 (P1′); HV-CDR3 GGLLLWFRWLKSNYFDY (antibody, V domains shown) VL: QDIQMTQSPSSLSAFVGDRVTITCRASQPIDNYLNWYHQKPGKAPKLLIYAASRLQSGVPSRLSGSGFGTDFTLTISSLQPEDFGNYYCQQSYTVPYTFGGGTKVEIR VH: EVQLLESGGGLVQPGGSLRLSCAASGFTFSAYSMIWVRQAPGKGLEWVSYIRPSGGRTTYADSVKGRFTISRDNSKNTLYLQMNSLRAEDTAVYYCARGGLLLWFRWLKSNYFDYWGQGTLVTVSSASTKGPSVFPLAPSSKS
4 | Yes | X69-C12: single point mutation of M142-H08 (P1′); HV-CDR3 GGLLLWFRVLKSNYFDY (antibody, V domains shown) VL: QDIQMTQSPSSLSAFVGDRVTITCRASQPIDNYLNWYHQKPGKAPKLLIYAASRLQSGVPSRLSGSGFGTDFTLTISSLQPEDFGNYYCQQSYTVPYTFGGGTKVEIR VH: EVQLLESGGGLVQPGGSLRLSCAASGFTFSAYSMIWVRQAPGKGLEWVSYIRPSGGRTTYADSVKGRFTISRDNSKNTLYLQMNSLRAEDTAVYYCARGGLLLWFRVLKSNYFDYWGQGTLVTVSSASTKGPSVFPLAPSSKS
5 | No | X68-A03: single point mutation of M142-H08 (P3); HV-CDR3 GGLLLDFRELKSNYFDY (antibody, V domains shown) VL: QDIQMTQSPSSLSAFVGDRVTITCRASQPIDNYLNWYHQKPGKAPKLLIYAASRLQSGVPSRLSGSGFGTDFTLTISSLQPEDFSNYYCQQSYTVPYTFGGGTKVEIR VH: EVQLLESGGGLVQPGGSLRLSCAASGFTFSAYSMIWVRQAPGKGLEWVSYIRPSGGRTTYADSVKGRFTISRDNSKNTLYLQMNSLRAEDTAVYYCARGGLLLDFRELKSNYFDYWGQGTLVTVSSASTKGPSVFPLAPSSKS
6 | No | X69-H10: single point mutation of M142-H08 (P1′); HV-CDR3 GGLLLWFRYLKSNYFDY (antibody, V domains shown) VL: QDIQMTQSPSSLSAFVGDRVTITCRASQPIDNYLNWYHQKPGKAPKLLIYAASRLQSGVPSRLSGSGFGTDFTLTISSLQPEDFGNYYCQQSYTVPYTFGGGTKVEIR VH: EVQLLESGGGLVQPGGSLRLSCAASGFTFSAYSMIWVRQAPGKGLEWVSYIRPSGGRTTYADSVKGRFTISRDNSKNTLYLQMNSLRAEDTAVYYCARGGLLLWFRYLKSNYFDYWGQGTLVTVSSASTKGPSVFPLAPSSKS
